{"source": "paper PMC5166503", "about": "(The Journal of Cell Biology, 2016)", "molecules": {"B1": {"name": "EGFP-CaMzt1 (natural protein, C. albicans, UniProt A0A1D8PMH7 1-58, looked up)", "chain": "MPPDPNSMIVELARLMNCVQLDETVLQLCIKLLDEGANPQQLAKHILAIKKETNSILT"}, "B2": {"name": "GST-CaMzt1 (natural protein, C. albicans, UniProt A0A1D8PMH7 1-58, looked up)", "chain": "B1 chain"}, "B3": {"name": "CaMzt1-3Flag (natural protein, C. albicans, UniProt A0A1D8PMH7 1-58, looked up)", "chain": "B1 chain"}}, "key": {"[1]": {"biological_target": "Saccharomyces cerevisiae γ-tubulin small complex (Scγ-TuSC) (S. cerevisiae) (UniProt P38863)", "assay": "SEC"}, "[2]": {"biological_target": "Candida albicans γ-tubulin small complex (Caγ-TuSC) (C. albicans) (UniProt Q59PZ2)", "assay": "SEC"}, "[3]": {"biological_target": "Candida albicans γ-tubulin small complex (Caγ-TuSC) (C. albicans) (UniProt Q59PZ2)", "assay": "SEC", "remark": "listed apart in the source"}, "[4]": {"biological_target": "EGFP-CaMzt1 (C. albicans)", "assay": "MST"}, "[5]": {"biological_target": "CaMzt1-EGFP (C. albicans)", "assay": "MST"}, "[6]": {"biological_target": "MOZART1-EGFP (purified) (human) (UniProt Q08AG7)", "sequence (Q08AG7 whole entry)": "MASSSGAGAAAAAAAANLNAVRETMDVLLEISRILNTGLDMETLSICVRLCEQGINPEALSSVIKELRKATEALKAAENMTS", "assay": "MST"}, "[7]": {"biological_target": "Caγ-TuSC–CaMzt1 complex (preassembled, co-expressed) (C. albicans) (UniProt Q59PZ2)", "assay": "MST"}, "[8]": {"biological_target": "EGFP-CaMzt1^D22A (C. albicans)", "assay": "MST"}, "GST–CaSpc72-N (1–420)": {"biological_target": "T1, GST–CaSpc72-N (1–420) (C. albicans, UniProt Q5AGV5 1-420)", "T1 sequence (looked up)": "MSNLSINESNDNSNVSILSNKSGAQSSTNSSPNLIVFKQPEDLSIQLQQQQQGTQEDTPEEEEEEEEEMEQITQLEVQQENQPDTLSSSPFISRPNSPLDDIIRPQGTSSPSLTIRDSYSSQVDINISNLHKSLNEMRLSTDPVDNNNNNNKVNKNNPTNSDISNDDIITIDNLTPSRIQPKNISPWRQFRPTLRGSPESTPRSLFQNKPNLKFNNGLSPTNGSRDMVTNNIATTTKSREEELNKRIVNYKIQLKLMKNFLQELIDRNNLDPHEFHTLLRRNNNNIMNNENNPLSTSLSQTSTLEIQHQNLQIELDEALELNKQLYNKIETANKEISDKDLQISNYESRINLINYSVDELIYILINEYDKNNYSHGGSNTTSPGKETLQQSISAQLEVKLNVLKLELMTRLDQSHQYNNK", "assay": "SEC"}, "SEC": {"biological_target": "the molecule itself", "assay": "SEC"}, "[9]": {"biological_target": "Candida albicans γ-tubulin small complex (Caγ-TuSC) (C. albicans, UniProt Q59PZ2 1-871; A0A1D8PS42 1-785; O93807 1-502)", "assay": "co-purification after co-expression"}}, "note": "Read-outs that look alike come from different tables or passages of the source."}
{"molecule": "Saccharomyces cerevisiae γ-tubulin small complex (Scγ-TuSC), P38863 1-823; P53540 1-846; P53378 1-473", "values": [{"measurement": "percent oligomeric", "setting": "[1]", "value": "> 90", "unit": "%"}]}
{"molecule": "Candida albicans γ-tubulin small complex (Caγ-TuSC), Q59PZ2 1-871; A0A1D8PS42 1-785; O93807 1-502", "values": [{"measurement": "percent oligomeric", "setting": "[2]", "value": 5, "unit": "%"}, {"measurement": "percent oligomeric", "setting": "[3]", "value": 30, "unit": "%"}]}
{"molecule": "CaSpc110^CM1 fragment (117–176 aa) (domain or fragment)", "values": [{"measurement": "Kd", "setting": "[4]", "value": 1420, "unit": "nM"}]}
{"molecule": "GST–CaSpc110-N (1–222) (domain or fragment)", "values": [{"measurement": "Kd", "setting": "[4]", "value": 187, "unit": "nM"}, {"measurement": "fold lower affinity than with EGFP-CaMzt1", "setting": "[5]", "value": 3, "unit": "fold"}, {"measurement": "Kd", "setting": "[6]", "value": 489, "unit": "nM"}, {"measurement": "fold higher affinity than to Caγ-TuSC", "setting": "[7]", "value": 3, "unit": "fold"}, {"measurement": "fold reduction of affinity against EGFP-CaMzt1", "setting": "[8]", "value": 6, "unit": "fold"}]}
{"molecule": "B1", "values": [{"measurement": "binding result", "setting": "GST–CaSpc72-N (1–420)", "value": "binds"}, {"measurement": "stoichiometry N", "setting": "SEC", "value": "3 to 4"}]}
{"molecule": "B2", "values": [{"measurement": "stoichiometry N", "setting": "SEC", "value": "3 to 4"}]}
{"molecule": "B3", "values": [{"measurement": "stoichiometry N", "setting": "[9]", "value": 1}]}
